Measured values from doi:10.1101/680314 (bioRxiv, 2019).
Changes are numbered by the printed parent chain. One block for each binder: values may come before it.

How the values were obtained:
GST-Nuf2-Ndc80 complex = GST-Nuf2-Ndc80 complex (UniProt Q9BZD4;O14777); assay: pull-down
Nuf2-Ndc80 complex = Nuf2-Ndc80 complex (UniProt Q9BZD4;O14777); assay: SEC
Sequence of Nuf2-Ndc80 complex (Q9BZD4 whole entry, chain 1 of 2): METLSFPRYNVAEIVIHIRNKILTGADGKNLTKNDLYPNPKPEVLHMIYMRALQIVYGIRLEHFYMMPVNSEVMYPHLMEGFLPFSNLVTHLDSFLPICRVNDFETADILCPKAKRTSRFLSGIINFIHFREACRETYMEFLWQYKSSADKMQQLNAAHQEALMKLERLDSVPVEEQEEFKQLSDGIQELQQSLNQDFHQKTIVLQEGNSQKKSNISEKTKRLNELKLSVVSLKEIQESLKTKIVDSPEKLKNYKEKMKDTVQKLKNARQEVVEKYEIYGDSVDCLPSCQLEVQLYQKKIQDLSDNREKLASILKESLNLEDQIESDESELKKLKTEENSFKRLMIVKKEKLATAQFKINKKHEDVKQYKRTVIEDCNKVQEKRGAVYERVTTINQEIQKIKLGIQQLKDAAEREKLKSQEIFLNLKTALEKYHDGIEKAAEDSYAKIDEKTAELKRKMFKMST
Sequence of Nuf2-Ndc80 complex (O14777 whole entry, chain 2 of 2): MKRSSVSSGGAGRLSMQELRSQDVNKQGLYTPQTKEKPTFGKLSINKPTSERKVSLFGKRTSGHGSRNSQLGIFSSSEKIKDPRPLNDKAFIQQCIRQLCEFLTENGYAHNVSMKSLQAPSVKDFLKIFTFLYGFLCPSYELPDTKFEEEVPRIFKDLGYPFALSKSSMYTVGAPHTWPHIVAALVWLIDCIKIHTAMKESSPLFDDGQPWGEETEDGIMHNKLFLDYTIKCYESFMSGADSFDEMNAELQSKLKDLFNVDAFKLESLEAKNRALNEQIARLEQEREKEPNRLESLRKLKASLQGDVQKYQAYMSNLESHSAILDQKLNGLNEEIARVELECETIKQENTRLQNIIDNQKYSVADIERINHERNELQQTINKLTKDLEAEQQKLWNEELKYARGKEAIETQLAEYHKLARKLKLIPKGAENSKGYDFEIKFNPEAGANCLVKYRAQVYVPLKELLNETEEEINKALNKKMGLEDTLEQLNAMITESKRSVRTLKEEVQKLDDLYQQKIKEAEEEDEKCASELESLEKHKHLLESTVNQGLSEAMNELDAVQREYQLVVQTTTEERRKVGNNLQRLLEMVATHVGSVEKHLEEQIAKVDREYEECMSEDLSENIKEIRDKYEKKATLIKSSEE

Sequence of GST-Nuf2-Ndc80 complex (Q9BZD4 whole entry, chain 1 of 2): as the sequence (Q9BZD4 whole entry, chain 1 of 2) above
Sequence of GST-Nuf2-Ndc80 complex (O14777 whole entry, chain 2 of 2): as the sequence (O14777 whole entry, chain 2 of 2) above

binding result (GST-Nuf2-Ndc80 complex): binds
B1: Ska1-Ska2-Ska3 6A complex (complex)
chain 1: MASSDLEQLCSHVNEKIGNIKKTLSLRNCGQEPTLKTVLNKIGDEIIVINELLNKLELEIQYQEQTNNSLKELCESLEEDYKDIEHLKENVPSHLPQVTVTQSCVKGSDLDPEEPIKVEEPEPVKKPPKEQRSIKEMPFITCDEFNGVPSYMKSRLTYNQINDVIKEINKAVISKYKILHQPKKSMNSVTRNLYHRFIDEETKDTKGRYFIVEADIKEFTTLKADKKFHVLLNILRHCRRLSEVRGGGLTRYVIT
chain 2: MEAEVDKLELMFQKAESDLDYIQYRLEYEIKTNHPDSASEKNPVTLLKELSVIKSRYQTLYARFKPVAVEQKESKSRICATVKKTMNMIQKLQKQTDLELSPLTKEEKTAAEQFKFHMPDL
chain 3: MDPIRSFCGKLRSLASTLDCETARLQRALDGEESDFEDYPMRILYDLHSEVQTLKDDVNILLDKARLENQEGIDFIKATKVLMEKNSMDIMKIREYFQKYGYSPRVKKNSVHEQEAINSDPELSNCENFQKTDVKDDLSDPPVASSCISEKSPRSPQLSDFGLERYIVSQVLPNPPQAVNNYKEEPVIVTPPTKQSLVKVLKAPKCALKMDDFECVAPKLEHFGISEYTMCLNEDYTMGLKNARNNKSEEAIDTESRLNDNVFATPSPIIQQLEKSDAEYTNAPLVPTFCAPGLKIPSTKNSIALVSTNYPLSKTNSSSNDLEVEDRTSLVLNSDTCFENLTDPSSPTISSYENLLRAPAPPEVTKIPEDILQLLSKYNSNLATPIAIKAVPPSKRFLKHGQNIRDVSNKEN

binding result (GST-Nuf2-Ndc80 complex): binds
B2: Ska1-Ska2-Ska3 6A complex treated with Cdk1/Cyclin B1 (complex)
chain 1: B1 chain 1
chain 2: B1 chain 2
chain 3: B1 chain 3
modifications: treated with Cdk1/Cyclin B1 plus ATP; phosphorylated residues not stated

binding result (Nuf2-Ndc80 complex): binds | binding result (GST-Nuf2-Ndc80 complex): binds
B3: Ska1-Ska2-Ska3 6D complex (complex)
chain 1: B1 chain 1
chain 2: B1 chain 2
chain 3: B1 chain 3 with A203D, A217D, A283D, A291D, A358D, A360D
